Test results taken from patent US20160264674A1 (ADURO BIOTECH HOLDINGS EUROPE B V, published 2016).
Read-outs that look alike come from different tables or passages of the source.

Assays:
FLAG-tagged human APRIL [1] = biological target: T1, FLAG-tagged human APRIL (human, UniProt O75888 105-250, limits assumed); experiment: ELISA: FLAG-tagged human APRIL captured on anti-FLAG plate, purified antibody titrated
T1 construct: also called FLAG-tagged APRIL; FLAG-APRIL; not shown: FLAG tag
T1 sequence (looked up): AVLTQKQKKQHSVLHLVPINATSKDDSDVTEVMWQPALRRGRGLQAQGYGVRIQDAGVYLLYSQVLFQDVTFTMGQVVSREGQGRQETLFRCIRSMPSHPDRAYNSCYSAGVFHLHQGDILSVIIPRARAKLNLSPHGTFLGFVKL

FLAG-tagged human APRIL [2] = biological target: T1, FLAG-tagged human APRIL; experiment: FLAG-APRIL ELISA after 10 min at 70 °C, antibody at 3.16 µg/ml
Protocol: (§1) The plasmids encoding the VH and VL constructs were mixed in a 1:3 ratio (4 μg in total) and transiently expressed by transfection into HEK293T human embryonic kidney cells (HEK293T/17, ATCC-CRL-11268), using Lipofectamine 2000 transfection reagent (Invitrogen) following the manufacturer's instructions. Cell supernatants were harvested after 5 days and tested for expression of antibody and binding to APRIL using an enzyme-linked immuno assay (ELISA). In these ELISAs, all incubation steps were followed by a wash step with PBST (PBS with 0.01% Tween 20). Maxisorb 96-wells plates (Nunc) were coated with 0.5 μg/ml anti-FLAG (Sigma) or anti-IgG4 (Jackson laboratories) and incubated overnight at 4° C. Subsequently the anti-FLAG coated 96-wells plates were incubated with FLAG-tagged human APRIL for 1 hour at room temperature. Next, supernatants and dilutions thereof were incubated for 1 hour, which was followed by an incubation of 1 hour with mouse anti-human IgG HRP-conjugate (Southern Biotechnology).
(§2) To determine the effect of humanization on the stability of the antibodies, humanized antibodies were exposed to a range of temperatures for 10 minutes. Purified antibodies were diluted to 3.16 μg/ml and dilutions thereof in PBS. Next, these solutions were exposed to 65° C. or 70° C. and residual binding after heat treatment of the antibodies was measured using the FLAG-tagged APRIL ELISA assay as described before (see Table 6).

FLAG-tagged human APRIL [3] = biological target: T1, FLAG-tagged human APRIL; experiment: FLAG-APRIL ELISA after 10 min at 65 °C, antibody at 0.316 µg/ml
Protocol: as §1, §2

FLAG-tagged human APRIL [4] = biological target: T1, FLAG-tagged human APRIL; experiment: FLAG-APRIL ELISA after 10 min at 70 °C, antibody at 0.316 µg/ml
Protocol: as §1, §2

FLAG-tagged human APRIL [5] = biological target: T1, FLAG-tagged human APRIL; experiment: competition ELISA: antibody premixed with FLAG-tagged APRIL, added to coated Fc-BCMA, anti-FLAG HRP
Protocol: (§3) A subset of humanized antibodies described above was selected for further analyses. Again, plasmids encoding the VH and VL constructs were mixed in a 1:3 ratio (32 μg) and transiently expressed by transfection into (8*10⁶) HEK293T human embryonic kidney cells (HEK293T), using Lipofectamine 2000 transfection reagent (Invitrogen) according to the manufacturer's instructions. Supernatants were harvested (10 ml) and antibodies were purified using MabSelect Sure Protein A resin according to the manufacturer's instructions (GE Healthcare). Buffer was exchanged for PBS using Zeba desalting columns (Thermo Scientific). The concentration of purified antibodies was determined based on OD280 (Nanodrop ND-1000). The binding of the purified antibodies to APRIL was established using the above described APRIL ELISA. The blocking capability of the humanized antibodies with BCMA and TACI receptors, was tested in a competition ELISA. In these ELISAs, all incubation steps were followed by a wash step with PBST (PBS with 0.01% Tween 20). Maxisorb 96-wells plates (Nunc) were coated with 0.5 μg/ml Fc-BCMA (R&D Systems) or Fc-TACI (R&D Systems) and incubated overnight at 4° C. Next, humanized antibodies and dilutions thereof were incubated, premixed with FLAG-tagged APRIL, for 1 hour, which was followed by an incubation of 1 hour with anti-FLAG HRP-conjugate (Sigma). Immunoreactivity was visualized with 100 μl TMB Stabilized Chromagen (Invitrogen). Reactions were stopped with 100 μl 0.5 M H2504 and absorbances were measured at 450 and 620 nm. Calculated EC₅₀ and IC₅₀ representing the concentration at which 50% of the total binding signal or blocking is observed are represented in Table 5.
The antibodies were tested for binding, blockade, and stability as described before.

FLAG-tagged human APRIL [6] = biological target: T1, FLAG-tagged human APRIL; experiment: ELISA: FLAG-tagged human APRIL captured on anti-FLAG plate, purified antibody titrated; remark: listed apart in the source
FLAG-tagged human APRIL [7] = biological target: T1, FLAG-tagged human APRIL; experiment: FLAG-APRIL ELISA after 10 min at 70 °C, antibody at 1 µg/ml
Protocol: as §1, §2

FLAG-tagged human APRIL [8] = biological target: T1, FLAG-tagged human APRIL; experiment: FLAG-APRIL ELISA after 10 min at 65 °C, antibody at 1 µg/ml
Protocol: as §1, §2

FLAG-tagged human APRIL [9] = biological target: T1, FLAG-tagged human APRIL; experiment: FLAG-APRIL ELISA after 10 min at 65 °C, antibody at 3.16 µg/ml
Protocol: as §1, §2

FLAG-tagged human APRIL [10] = biological target: T1, FLAG-tagged human APRIL; experiment: competition ELISA: antibody premixed with FLAG-tagged APRIL, added to coated Fc-BCMA, anti-FLAG HRP; remark: listed apart in the source
Protocol: as §3, with “Again,” for “A subset of humanized antibodies described above was selected for further analyses. Again,”, “Next, humanized antibodies and dilutions thereof were incubated, premixed with FLAG-tagged APRIL, for 1 hour, which was followed by an incubation of 1 hour with anti-FLAG HRP-conjugate (Sigma). Immunoreactivity was visualized with 100 μl TMB Stabilized Chromagen (Invitrogen).” left out, “5. […]” for “5.”

FLAG-tagged human APRIL [11] = biological target: T1, FLAG-tagged human APRIL; experiment: FLAG-APRIL ELISA after 10 min at 70 °C, antibody at 1 µg/ml; remark: listed apart in the source
FLAG-tagged human APRIL [12] = biological target: T1, FLAG-tagged human APRIL; experiment: FLAG-APRIL ELISA after 10 min at 70 °C, antibody at 3.16 µg/ml; remark: listed apart in the source
FLAG-tagged human APRIL [13] = biological target: T1, FLAG-tagged human APRIL; experiment: FLAG-APRIL ELISA after 10 min at 65 °C, antibody at 0.316 µg/ml; remark: listed apart in the source
Protocol: as §1, §2
(§4) In addition, the stability of the substituted humanized antibodies was improved as determined using thermostability studies as described in Example 3 (see Table 9).

FLAG-tagged human APRIL [14] = biological target: T1, FLAG-tagged human APRIL; experiment: FLAG-APRIL ELISA after 10 min at 70 °C, antibody at 0.316 µg/ml; remark: listed apart in the source
FLAG-tagged human APRIL [15] = biological target: T1, FLAG-tagged human APRIL; experiment: FLAG-APRIL ELISA after 10 min at 65 °C, antibody at 3.16 µg/ml; remark: listed apart in the source
Protocol: as §1, §2, §4

FLAG-tagged human APRIL [16] = biological target: T1, FLAG-tagged human APRIL; experiment: FLAG-APRIL ELISA after 10 min at 65 °C, antibody at 1 µg/ml; remark: listed apart in the source
Protocol: as §1, §2, §4

B1: hAPRIL.01A (antibody, mouse IgG1, kappa, V domains shown)
VH: EVQLQQSGPELVKPGASVKMSCKASGYTFTSYVMHWVKQKPGQGLEWIGYINPYNDAPKYNEKFKGKATVTSDKSSGTAYMELSSLTSEDSAVYYCARGLGYALYYAMDYWGQGTSVTVSS
VL: DIVMTQSQKFKSTSVGDRVSVTCKASQNVGNNVAWYQQKAGQSPKALISSASNRDSGVPDRFTGSGSGTDFTLTISNVQSEDLADYFCQQYNIYPFTFGSGTKLEIKR
notes: Mouse antibody; also called mouse hAPRIL.01A antibody
EC50 (FLAG-tagged human APRIL [1]): 0.16 nM
% residual binding after heat treatment (room temperature = 100%) (FLAG-tagged human APRIL [2]): 6.7%
% residual binding after heat treatment (room temperature = 100%) (FLAG-tagged human APRIL [3]): 13.7%
% residual binding after heat treatment (room temperature = 100%) (FLAG-tagged human APRIL [4]): 11.2%
IC50 (FLAG-tagged human APRIL [5]): 0.46 nM
EC50 (FLAG-tagged human APRIL [6]): 0.16 nM
% residual binding after heat treatment (room temperature = 100%) (FLAG-tagged human APRIL [7]): 4.9%
% residual binding after heat treatment (room temperature = 100%) (FLAG-tagged human APRIL [8]): 8.4%
% residual binding after heat treatment (room temperature = 100%) (FLAG-tagged human APRIL [9]): 27.1%
IC50 (FLAG-tagged human APRIL [10]): 0.46 nM

B2: VH14_1.VL15 (antibody, human IgG4, V domains shown)
VH: QVQLVQSGAEVKKPGASVKVSCKASGYTFTSYVMHWVRQAPGQGLEWMGYINPYNDAPKYNEKFKGRVTMTSDTSASTAYMELSSLRSDDTAVYYCARGLGYALYYAMDYWGQGTTVTVSS
VL: DIVMTQSPSTLSASVGDRVTITCKASQNVGNNVAWYQQKPGKAPKLLISSASNRDSGVPSRFSGSGSGTEFTLTISSLQPDDFATYFCQQYNIYPFTFGQGTKLEIK
notes: VH14 with R72S; rest is human IgG4 (S241P, Kabat) and human kappa; also called 14_1.15; antibody 14_1.15
EC50 (FLAG-tagged human APRIL [1]): 1.29 nM
IC50 (FLAG-tagged human APRIL [5]): 2.63 nM
EC50 (FLAG-tagged human APRIL [6]): 1.29 nM
% residual binding after heat treatment (room temperature = 100%) (FLAG-tagged human APRIL [11]): 38.3%
% residual binding after heat treatment (room temperature = 100%) (FLAG-tagged human APRIL [12]): 38%
% residual binding after heat treatment (room temperature = 100%) (FLAG-tagged human APRIL [13]): 71%
% residual binding after heat treatment (room temperature = 100%) (FLAG-tagged human APRIL [14]): 63%
% residual binding after heat treatment (room temperature = 100%) (FLAG-tagged human APRIL [15]): 59.9%
% residual binding after heat treatment (room temperature = 100%) (FLAG-tagged human APRIL [16]): 46.1%
IC50 (FLAG-tagged human APRIL [10]): 2.63 nM
